In paper PMC7021470 (mSphere, 2020):
Where two headings read alike, the source gives them in different places.

Columns and labels:
[1] = target: T1, E. faecalis metalloprotease GelE (bacterial supernatants) (Enterococcus faecalis, UniProt Q833V7); settings: 500 pM recombinant GLP-1; 4 h at room temperature; ELISA; vs GM17 medium control; mean ± SD, n = 4
From the text: Two secreted proteases from E. faecalis are well known, the serine protease SprE and the metalloprotease GelE, both of which are regulated by the two-component, quorum-sensing fsr (faecalis system regulator) operon ([9]) (Fig. 2A). We obtained strains of E. faecalis containing null mutations in sprE (TX5243), gelE (TX5264), and fsrB (TX5266), as well as a gelE sprE double mutant (TX5128), all generated in the commonly used wild-type OG1RF E. faecalis strain ([10]).
Supernatants from E. faecalis protease mutants and controls (OG1RF, TX5266 [fsrB mutant], TX5264 [gelE mutant], TX5243 [sprE mutant], and TX5128 [gelE sprE mutant]) were collected from an overnight culture grown in GM17 aerobically at 37°C by centrifugation, as described above.

[2] = target: E. faecalis metalloprotease GelE (apical supernatants) (Enterococcus faecalis, UniProt Q833V7); settings: T84 transwell; approximately 500 pM GLP-1 in DMEM-F-12 basolateral; 16 h, 37°C, 5% CO2; ELISA; compared to DMEM-F-12 control; mean ± SD, four independent experiments
Description: Growth cultures and assays of T84 cells were performed by methods described previously, with slight modifications ([26]). T84 human colonic epithelial cells (ATCC CCL-248) were propagated in tissue culture-treated T75 flasks (Cellstar), as indicated by the ATCC. When between 90 and 100% confluence, T84 cells were treated with 0.25% trypsin and plated onto 24-well, 3.0-μm polycarbonate membrane transwell filters (catalog no. 3415; Costar) at a density of 8 × 10^4 cells/well.
To prepare bacteria, on the day of the assay E. faecalis strains were subcultured 1% (vol/vol) from an overnight culture into GM17 and grown for 5 h, as described above. Whole-culture (cells plus supernatant) samples were diluted in DMEM–F-12 (Gibco) to a concentration of 1 × 10^7 CFU/ml, and supernatant samples were diluted 50% in DMEM–F-12. All samples were neutralized to a pH of 6.8 to 7 using 3 M NaOH.
A final TEER measurement was taken for each monolayer.

[3] = target: T1, E. faecalis metalloprotease GelE (bacterial supernatants); type: in vitro ADME; design: The secreted metalloprotease GelE serves E. faecalis by degrading misfolded surface proteins; endogenous in cells; host or cells: Enterococcus faecalis strains OG1RF, 30054A, 30002 (and TX5243 sprE mutant); culture supernatants; settings: E. faecalis 30054A and 30002 supernatants; 200 pM GLP-1; 30 min at 100°C after incubation; ELISA; n = 2
Description: If GelE was targeting the ELISA and not GLP-1, one would expect to see high levels of GLP-1 in a sample heat treated after incubation with GLP-1, ensuring no further degradation by GelE during the ELISA.
Supplementary file : FIG S4 GLP-1-inhibitory activity with heat treatment pre- and postincubation. […] Data were obtained from two independent experiments (n = 2) and are expressed as the mean ± SD. Download FIG S4, PDF file, 0.02 MB.

[4] = test system: NCI-H716 cells; assay: GLP-1 secretion screen with bacterial supernatants on NCI-H716 cells (ELISA); type: cell-based, human; settings: 2 h incubation at 37°C, total GLP-1 by ELISA, medium control = 100%, PMA at 2 μM, mean ± SD, n = 3
Description: NCI-H716 (American Type Culture Collection [ATCC] CCL-251) cells were grown in RPMI (ATCC) medium supplemented with 10% (vol/vol) heat-inactivated newborn calf serum (NBCS; Gibco). Cultures were maintained at a concentration of 2 × 10^5 to 8 × 10^5 cells/ml and used at passages 15 to 40 for cell studies. For cell studies, 96-well plates were coated with 100 μl of 10 mg/ml Matrigel (BD Biosciences) for 2 h at room temperature. Following coating, NCI-H716 cells were seeded at a concentration of 1 × 10^5 cells/well in Dulbecco’s modified Eagle’s medium (DMEM) supplemented with 10% (vol/vol) NBCS, as determined by trypan blue staining using a hemocytometer. Two days later, lyophilized bacterial supernatants were resuspended in Krebs buffer (Sigma) containing 0.2% (wt/vol) bovine serum albumin (BSA) and 0.03% (wt/vol) bovine bile and incubated on the NCI-H716 cells at 37°C with 5% CO2. […] Cell viability was monitored using the PrestoBlue cell viability reagent (Thermo Fisher Scientific), following the manufacturer’s instructions.

[5] = test system: E. faecalis 30054A; assay: Sensitivity of GLP-1-inhibitory activity to TPEN; type: cell-based, Enterococcus faecalis; settings: E. faecalis 30054A grown overnight with increasing amounts of TPEN; supernatants incubated with 500 pM GLP-1, 4 h at room temperature; ELISA; n = 3
From the text: Supplementary file : FIG S1 Sensitivity of GLP-1-inhibitory activity to TPEN. […] Data were obtained from three (n = 3) independent experiments (replicates 1 to 3) with mean ± SD shown for each replicate (technical variation). Linear regression with R^2 goodness-of-fit value and P value are reported. Download FIG S1, EPS file, 0.1 MB.

[6] = target: T2, E. faecalis metalloprotease GelE (bacterial supernatants) (Enterococcus faecalis, UniProt Q833V7); settings: 4 h at room temperature; for quantity (%) of substrate remaining after incubation with supernatant, dilution 0.0001x: E. faecalis 30054A supernatant diluted 0.0001x in bacterial culture medium; for quantity (%) of substrate remaining after incubation with supernatant, dilution 0.0001x / quantity (%) of substrate remaining after incubation with supernatant, dilution 0.001x / quantity (%) of substrate remaining after incubation with supernatant, dilution 1x / quantity (%) of substrate remaining after incubation with supernatant, dilution 0.01x / quantity (%) of substrate remaining after incubation with supernatant, dilution 0.1x: recombinant substrate, Luminex (Milliplex) read-out, mean ± SD; for quantity (%) of substrate remaining after incubation with supernatant, dilution 0.0001x / quantity (%) of substrate remaining after incubation with supernatant, dilution 0.001x / degradation of substrate by GelE (in words) / quantity (%) of substrate remaining after incubation with supernatant, dilution 0.01x / quantity (%) of substrate remaining after incubation with supernatant, dilution 0.1x: n = 3; for quantity (%) of substrate remaining after incubation with supernatant, dilution 0.001x: E. faecalis 30054A supernatant diluted 0.001x in bacterial culture medium; for quantity (%) of substrate remaining after incubation with supernatant, dilution 1x: E. faecalis 30054A supernatant, 1x (undiluted), n = 3 independent experiments; for degradation of substrate by GelE (in words): undiluted supernatants of E. faecalis 30054A, 30002, OG1RF, ΔgelE, ΔsprE, S613, Luminex, Fig. 4; for quantity (%) of substrate remaining after incubation with supernatant, dilution 0.01x: E. faecalis 30054A supernatant diluted 0.01x in bacterial culture medium; for quantity (%) of substrate remaining after incubation with supernatant, dilution 0.1x: E. faecalis 30054A supernatant diluted 0.1x in bacterial culture medium
T2 sequence (Q833V7 whole entry, looked up): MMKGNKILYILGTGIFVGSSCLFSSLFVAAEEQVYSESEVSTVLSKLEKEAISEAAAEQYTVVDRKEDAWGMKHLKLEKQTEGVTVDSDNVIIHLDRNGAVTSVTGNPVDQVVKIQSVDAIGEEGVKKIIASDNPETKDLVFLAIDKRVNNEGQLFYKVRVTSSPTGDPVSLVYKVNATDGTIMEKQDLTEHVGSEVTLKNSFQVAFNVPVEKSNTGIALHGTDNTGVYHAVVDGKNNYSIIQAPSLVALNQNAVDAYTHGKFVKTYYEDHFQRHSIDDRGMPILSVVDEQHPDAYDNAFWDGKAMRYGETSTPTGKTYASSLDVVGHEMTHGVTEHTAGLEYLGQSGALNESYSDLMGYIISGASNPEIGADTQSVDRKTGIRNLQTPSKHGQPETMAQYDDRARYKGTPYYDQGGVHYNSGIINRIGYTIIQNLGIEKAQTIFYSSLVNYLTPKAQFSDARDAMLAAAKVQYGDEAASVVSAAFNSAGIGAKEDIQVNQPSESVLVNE
Description: To gain a better understanding of the substrate preference of GelE, we also tested the ability of diluted supernatants of E. faecalis 30054A, from 1 to 0.0001×, to degrade the same panel of metabolic substrates (Table 1).
Bacterial supernatants were collected from an overnight culture by centrifugation as described above, diluted in bacterial culture medium as indicated, and incubated with recombinant protein (GenScript; Sigma, Tocris) of each analyte for 4 h at room temperature, followed by storage at –80°C until ready for analyte quantification. The Milliplex multiplex assay was run according to the protocol provided by the manufacturer.

| Compound | quantity (%) of substrate remaining after incubation with supernatant, dilution 0.0001x [6] [%] | quantity (%) of substrate remaining after incubation with supernatant, dilution 0.001x [6] [%] | quantity (%) of substrate remaining after incubation with supernatant, dilution 1x [6] [%] | degradation of substrate by GelE (in words) [6] | quantity (%) of substrate remaining after incubation with supernatant, dilution 0.01x [6] [%] | quantity (%) of substrate remaining after incubation with supernatant, dilution 0.1x [6] [%] | other results |
| --- | --- | --- | --- | --- | --- | --- | --- |
| CC[C@H](C)[C@H](NC(=O)[C@H](Cc1ccccc1)NC(=O)[C@H](CCC(=O)O)NC(=O)[C@H](CCCCN)NC(=O)[C@H](C)NC(=O)[C@H](C)NC(=O)[C@H](CCC(N)=O)NC(=O)CNC(=O)[C@H](CCC(=O)O)NC(=O)[C@H](CC(C)C)NC(=O)[C@H](Cc1ccc(O)cc1)NC(=O)[C@H](CO)NC(=O)[C@H](CO)NC(=O)[C@@H](NC(=O)[C@H](CC(=O)O)NC(=O)[C@H](CO)NC(=O)[C@@H](NC(=O)[C@H](Cc1ccccc1)NC(=O)[C@@H](NC(=O)CNC(=O)[C@H](CCC(=O)O)NC(=O)[C@H](C)NC(=O)[C@@H](N)Cc1c[nH]cn1)[C@@H](C)O)[C@@H](C)O)C(C)C)C(=O)N[C@@H](C)C(=O)N[C@@H](Cc1c[nH]c2ccccc12)C(=O)N[C@@H](CC(C)C)C(=O)N[C@H](C(=O)N[C@@H](CCCCN)C(=O)NCC(=O)N[C@@H](CCCNC(=N)N)C(N)=O)C(C)C [GLP-1, glucagon-like peptide-1] |  |  |  |  |  |  | GLP-1 level after incubation with OG1RF (wild-type) supernatant [1]: −0.06% ± 0.76%; GLP-1 level after incubation with ΔsprE mutant (TX5243) supernatant [1]: −0.14% ± 0.74%; GLP-1 in the basolateral compartment, apical 30054A supernatant [2]: 3.1% ± 2.68%; GLP-1 in the basolateral compartment, apical OG1RF supernatant [2]: 1.6% ± 0.46%; GLP-1 levels, supernatants heat treated after incubation with GLP-1 [3]: low GLP-1 levels |
| CCCCCCCCCCCCCC(=O)O[C@@H]1[C@@H](C)[C@@]2(O)[C@@H](C=C(CO)C[C@]3(O)C(=O)C(C)=C[C@@H]23)[C@@H]2C(C)(C)[C@]12OC(C)=O [PMA, 4-Phorbol 12 myristate 13-acetate] |  |  |  |  |  |  | GLP-1 compared to the medium controls [4]: 200% |
| c1ccc(CN(CCN(Cc2ccccn2)Cc2ccccn2)Cc2ccccn2)nc1 [TPEN, N,N,N′,N′-tetrakis(2-pyridylmethyl)ethane-1,2-diamine] |  |  |  |  |  |  | effect on GLP-1 degradation by supernatant [5]: reduction in GLP-1 degradation |
| insulin | 99.23 ± 1.33 | 99.97 ± 0.05 | 57.29 ± 7.69 | less striking but still statistically significant |  |  |  |
| interleukin 6 [IL-6] | 95.74 ± 6.94 | 95.75 ± 7.36 | 80.28 ± 24.77 | did not observe consistent degradation | 99.91 ± 0.15 | 99.78 ± 0.37 |  |
| leptin | 97.77 ± 3.87 | 99.78 ± 0.39 | 2.15 ± 0.96 |  | 72.29 ± 1.72 | 7.95 ± 4.72 | quantity (%) of substrate remaining after incubation with supernatant, dilution 0.1x ([6]; listed as leptin): 7.95% ± 4.72% |
| monocyte chemoattractant protein-1 [MCP-1] | 98.33 ± 2.89 | 99.99 ± 0.01 |  | less striking but still statistically significant | 99.92 ± 0.14 | 74.03 ± 44.98 |  |
| tumor necrosis factor alpha [TNFα] | 98.12 ± 1.67 | 99.28 ± 1.25 |  | less striking but still statistically significant | 99.72 ± 0.48 | 87.87 ± 19.41 |  |
